Experimental data as given in patent US20230242651A1 (published 2023).

Experiments:
[1] = molecular target: T1, human interleukin-23 receptor (IL23R) (human, UniProt Q5VWK5 24-355, limits assumed); assay: SPR, scFv (summary table)
T1 construct: also called human IL23R
T1 sequence (looked up): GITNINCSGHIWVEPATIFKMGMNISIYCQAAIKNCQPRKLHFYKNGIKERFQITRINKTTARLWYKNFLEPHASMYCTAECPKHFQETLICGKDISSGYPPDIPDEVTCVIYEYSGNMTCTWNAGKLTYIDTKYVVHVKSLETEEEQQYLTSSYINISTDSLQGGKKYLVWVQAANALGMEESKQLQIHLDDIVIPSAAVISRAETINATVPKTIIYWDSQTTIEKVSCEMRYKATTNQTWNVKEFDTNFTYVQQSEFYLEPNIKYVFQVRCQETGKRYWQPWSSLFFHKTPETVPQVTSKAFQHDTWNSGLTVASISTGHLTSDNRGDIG
How it was run: (§1)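 Humanized rabbit variable domains were built as single-chain variable fragments (scFv) on consensus germline framework pairs, some carrying a λ-cap in which Vκ framework IV was replaced by a Vλ germline sequence. These were expressed in E. coli as inclusion bodies, then solubilized and refolded in a generic refolding buffer. Affinity for human IL23R was determined by surface plasmon resonance and reported as rate constants and dissociation constant, or as the ratio of the λ-capped to uncapped dissociation constant.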

[2] = molecular target: T1, human interleukin-23 receptor (IL23R); assay: SPR, scFv
How it was run: as §1

[3] = molecular target: T1, human interleukin-23 receptor (IL23R); assay: SPR; KD of the capped scFv over KD of its uncapped counterpart
How it was run: as §1

| Binder | Kd [1] [nM] | Kd [2] [nM] | koff [2] [s⁻¹] | kon [2] [M⁻¹ s⁻¹] | Ratio (capped/uncapped) of KD [3] |
| --- | --- | --- | --- | --- | --- |
| Vκ3/VH2 consensus (uncapped), human IL23R specific scFv (scFv, scFv VL-linker-VH, made in E. coli; Vκ framework IV (uncapped, full consensus); also called Vκ3VH2 uncapped) scFv: DIVLTQSPATLSLSPGERATLSCQASENIYSFLAWYQQKPGQAPRLLIYSASKLAAGVPARFSGSGSGTDFTLTISSLEPEDFAVYYCQQTNRYSNPDIYNVFGQGTKVEIKRGGGGSGGGGSGGGGSGGGGSQVQLKESGPALVKPTQTLTLTCTFSGIDFNSNYYMCWIRQPPGKALEWLACIYVGSHVNTYYANWAKGRLTISKDTSKNQVVLTMTNMDPVDTATYYCATSGSSVLYFKFWGQGTLVTVSS | 0.462 | 0.462 | 0.000363 | 786000 |  |
| Vκ3/VH1A consensus (uncapped), human IL23R specific scFv (scFv, scFv VL-linker-VH, made in E. coli; Vκ framework IV (uncapped, full consensus); also called Vκ3VH1A uncapped) scFv: DIVLTQSPATLSLSPGERATLSCQASENIYSFLAWYQQKPGQAPRLLIYSASKLAAGVPARFSGSGSGTDFTLTISSLEPEDFAVYYCQQTNRYSNPDIYNVFGQGTKVEIKRGGGGSGGGGSGGGGSGGGGSQVQLVQSGAEVKKPGSSVKVSCKASGIDFNSNYYMCWVRQAPGQGLEWMGCIYVGSHVNTYYANWAKGRVTITADESTSTAYMELSSLRSEDTAVYYCATSGSSVLYFKFWGQGTLVTVSS | 0.297 | 0.297 | 0.000479 | 1.61e+06 |  |
| Vκ3/VH1B consensus (uncapped), human IL23R specific scFv (scFv, scFv VL-linker-VH, made in E. coli; Vκ framework IV (uncapped, full consensus); also called Vκ3VH1B uncapped) scFv: DIVLTQSPATLSLSPGERATLSCQASENIYSFLAWYQQKPGQAPRLLIYSASKLAAGVPARFSGSGSGTDFTLTISSLEPEDFAVYYCQQTNRYSNPDIYNVFGQGTKVEIKRGGGGSGGGGSGGGGSGGGGSQVQLVQSGAEVKKPGASVKVSCKASGIDFNSNYYMCWVRQAPGQGLEWMGCIYVGSHVNTYYANWAKGRVTMTRDTSISTAYMELSSLRSEDTAVYYCATSGSSVLYFKFWGQGTLVTVSS | 0.455 | 0.455 | 0.000724 | 1.59e+06 |  |
| Vκ2/VH3 consensus (uncapped), human IL23R specific scFv (scFv, scFv VL-linker-VH, made in E. coli; Vκ framework IV (uncapped, full consensus); also called Vκ2VH3 uncapped) scFv: DIVMTQSPLSLPVTPGEPASISCQASENIYSFLAWYLQKPGQSPQLLIYSASKLAAGVPDRFSGSGSGTDFTLKISRVEAEDVGVYYCQQTNRYSNPDIYNVFGQGTKVEIKRGGGGSGGGGSGGGGSGGGGSEVQLVESGGGLVQPGGSLRLSCAASGIDFNSNYYMCWVRQAPGKGLEWVSCIYVGSHVNTYYANWAKGRFTISRDNSKNTLYLQMNSLRAEDTAVYYCATSGSSVLYFKFWGQGTLVTVSS | 0.0236 | 0.0236 | 4.3e-05 | 1.82e+06 |  |
| Vκ3/VH3 consensus λ-capped, human IL23R specific scFv (scFv, scFv VL-linker-VH, made in E. coli; also called Vκ3VH3 capped) scFv: DIVLTQSPATLSLSPGERATLSCQASENIYSFLAWYQQKPGQAPRLLIYSASKLAAGVPARFSGSGSGTDFTLTISSLEPEDFAVYYCQQTNRYSNPDIYNVFGGGTKLTVLGGGGGSGGGGSGGGGSGGGGSEVQLVESGGGLVQPGGSLRLSCAASGIDFNSNYYMCWVRQAPGKGLEWVSCIYVGSHVNTYYANWAKGRFTISRDNSKNTLYLQMNSLRAEDTAVYYCATSGSSVLYFKFWGQGTLVTVSS | 0.022 | 0.022 | 6.38e-05 | 2.89e+06 | 0.6 |
| Vκ2/VH6 consensus (uncapped), human IL23R specific scFv (scFv, scFv VL-linker-VH, made in E. coli; Vκ framework IV (uncapped, full consensus); also called Vκ2VH6 uncapped) scFv: DIVMTQSPLSLPVTPGEPASISCQASENIYSFLAWYLQKPGQSPQLLIYSASKLAAGVPDRFSGSGSGTDFTLKISRVEAEDVGVYYCQQTNRYSNPDIYNVFGQGTKVEIKRGGGGSGGGGSGGGGSGGGGSQVQLQQSGPGLVKPSQTLSLTCAISGIDFNSNYYMCWIRQSPGRGLEWLGCIYVGSHVNTYYANWAKGRITINPDTSKNQFSLQLNSVTPEDTAVYYCATSGSSVLYFKFWGQGTLVTVSS | 3.24 | 3.24 | 0.000288 | 88700 |  |
| Vκ2/VH2 consensus λ-capped, human IL23R specific scFv (scFv, scFv VL-linker-VH, made in E. coli; also called Vκ2VH2 capped) scFv: DIVMTQSPLSLPVTPGEPASISCQASENIYSFLAWYLQKPGQSPQLLIYSASKLAAGVPDRFSGSGSGTDFTLKISRVEAEDVGVYYCQQTNRYSNPDIYNVFGGGTKLTVLGGGGGSGGGGSGGGGSGGGGSQVQLKESGPALVKPTQTLTLTCTFSGIDFNSNYYMCWIRQPPGKALEWLACIYVGSHVNTYYANWAKGRLTISKDTSKNQVVLTMTNMDPVDTATYYCATSGSSVLYFKFWGQGTLVTVSS | 0.0741 | 0.0741 | 0.000102 | 1.38e+06 |  |
| Vκ1/VH1A consensus λ-capped, human IL23R specific scFv (scFv, scFv VL-linker-VH, made in E. coli; also called Vκ1VH1A capped) scFv: DIQMTQSPSSLSASVGDRVTITCQASENIYSFLAWYQQKPGKAPKLLIYSASKLAAGVPSRFSGSGSGTDFTLTISSLQPEDFATYYCQQTNRYSNPDIYNVFGGGTKLTVLGGGGGSGGGGSGGGGSGGGGSQVQLVQSGAEVKKPGSSVKVSCKASGIDFNSNYYMCWVRQAPGQGLEWMGCIYVGSHVNTYYANWAKGRVTITADESTSTAYMELSSLRSEDTAVYYCATSGSSVLYFKFWGQGTLVTVSS | 0.166 | 0.166 | 0.000616 | 3.71e+06 | 8.3 |
| Vκ1/VH1B consensus λ-capped, human IL23R specific scFv (scFv, scFv VL-linker-VH, made in E. coli; also called Vκ1VH1B capped) scFv: DIQMTQSPSSLSASVGDRVTITCQASENIYSFLAWYQQKPGKAPKLLIYSASKLAAGVPSRFSGSGSGTDFTLTISSLQPEDFATYYCQQTNRYSNPDIYNVFGGGTKLTVLGGGGGSGGGGSGGGGSGGGGSQVQLVQSGAEVKKPGASVKVSCKASGIDFNSNYYMCWVRQAPGQGLEWMGCIYVGSHVNTYYANWAKGRVTMTRDTSISTAYMELSSLRSEDTAVYYCATSGSSVLYFKFWGQGTLVTVSS | 0.199 | 0.199 | 0.000478 | 2.4e+06 | 1.2 |
| Vκ3/VH4 consensus λ-capped, human IL23R specific scFv (scFv, scFv VL-linker-VH, made in E. coli; also called Vκ3VH4 capped) scFv: DIVLTQSPATLSLSPGERATLSCQASENIYSFLAWYQQKPGQAPRLLIYSASKLAAGVPARFSGSGSGTDFTLTISSLEPEDFAVYYCQQTNRYSNPDIYNVFGGGTKLTVLGGGGGSGGGGSGGGGSGGGGSQVQLQESGPGLVKPSETLSLTCTVSGIDFNSNYYMCWIRQPPGKGLEWIGCIYVGSHVNTYYANWAKGRVTISVDTSKNQFSLKLSSVTAADTAVYYCATSGSSVLYFKFWGQGTLVTVSS | 0.123 | 0.123 | 0.000288 | 2.35e+06 | 0.9 |
| Vκ2/VH5 consensus (uncapped), human IL23R specific scFv (scFv, scFv VL-linker-VH, made in E. coli; Vκ framework IV (uncapped, full consensus); also called Vκ2VH5 uncapped) scFv: DIVMTQSPLSLPVTPGEPASISCQASENIYSFLAWYLQKPGQSPQLLIYSASKLAAGVPDRFSGSGSGTDFTLKISRVEAEDVGVYYCQQTNRYSNPDIYNVFGQGTKVEIKRGGGGSGGGGSGGGGSGGGGSEVQLVQSGAEVKKPGESLKISCKGSGIDFNSNYYMCWVRQMPGKGLEWMGCIYVGSHVNTYYANWAKGQVTISADKSISTAYLQWSSLKASDTAMYYCATSGSSVLYFKFWGQGTLVTVSS | 0.303 | 0.303 | 0.000475 | 1.57e+06 |  |
| Vκ2/VH4 consensus (uncapped), human IL23R specific scFv (scFv, scFv VL-linker-VH, made in E. coli; Vκ framework IV (uncapped, full consensus); also called Vκ2VH4 uncapped) scFv: DIVMTQSPLSLPVTPGEPASISCQASENIYSFLAWYLQKPGQSPQLLIYSASKLAAGVPDRFSGSGSGTDFTLKISRVEAEDVGVYYCQQTNRYSNPDIYNVFGQGTKVEIKRGGGGSGGGGSGGGGSGGGGSQVQLQESGPGLVKPSETLSLTCTVSGIDFNSNYYMCWIRQPPGKGLEWIGCIYVGSHVNTYYANWAKGRVTISVDTSKNQFSLKLSSVTAADTAVYYCATSGSSVLYFKFWGQGTLVTVSS | 0.125 | 0.125 | 0.000157 | 1.26e+06 |  |
